Tests used:
[1] = target: His-tagged HM1.24 antigen, residues N49-A163 of the extracellular domain (human) (UniProt Q10589); test: Biacore (SPR): antibody on a protein A chip, HM1.24 antigen as analyte; antibody post incubation (pH 9, 37 C, 4 days)
[2] = target: His-tagged HM1.24 antigen, residues N49-A163 of the extracellular domain (human) (UniProt Q10589); test: Biacore (SPR): His-tagged HM1.24 antigen coupled directly to the chip (NHS chemistry), antibody as analyte; simultaneous (global Langmuir) fitting
[3] = target: His-tagged HM1.24 antigen, residues N49-A163 of the extracellular domain (human) (UniProt Q10589); test: Biacore (SPR): antibody on a protein A chip, HM1.24 antigen as analyte; antibody untreated
[4] = target: His-tagged HM1.24 antigen, residues N49-A163 of the extracellular domain (human) (UniProt Q10589); test: Biacore (SPR): His-tagged HM1.24 antigen coupled directly to the chip (NHS chemistry), antibody as analyte; separate kd and ka fitting

Chain of His-tagged HM1.24 antigen, residues N49-A163 of the extracellular domain (human) (Q10589 49-163): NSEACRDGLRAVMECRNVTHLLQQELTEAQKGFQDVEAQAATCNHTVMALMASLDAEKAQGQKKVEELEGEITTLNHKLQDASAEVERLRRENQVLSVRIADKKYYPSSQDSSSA

B1: Antibody comprising the HM1.24_H2.2 heavy chain variant and the HM1.24_L4 light chain (antibody, V domains shown)
VH: EVQLVESGGGLVKPGGSLRLSCAASGYTFTPYWMQWVRQAPGKGLEWMGSIFPGSGDTRYSQSFQGQVTISADKSISTAYMELSSLRSEDTAVYYCARGLRRGGYYFDYWGQGTLVTVSS
VL: DIVMTQSPLSLPVTLGQPASISCKASQDVNTAVAWYLQKPGKSPKLLIYSASNRYTGVPDRITGSGSGTDFTLKISRVEAEDVGVYYCQQHYSTPFTFGSGTKLEIKR
In the case of B1, the koff [1] is reported as 0.00257 s⁻¹, the Kd [2] is reported as 0.0826 nM and the koff [2] is reported as 7.27e-05 s⁻¹. The kon [2] was 879000 M⁻¹ s⁻¹, the koff [3] was 0.00287 s⁻¹ and the Kd [4] was 0.0732 nM. It also gave a koff [4] of 7.02e-05 s⁻¹ and a kon [4] of 958000 M⁻¹ s⁻¹.

From patent publication US20100104557A1
